This note sets out measurements from publication PMC6531494, “Exploring the sequence variability of polymerization-involved residues in the production of levan- and inulin-type fructooligosaccharides with a levansucrase” (Scientific Reports, 2019).

Substrate in the data set: OC[C@H]1O[C@@](CO)(O[C@H]2O[C@H](CO)[C@@H](O)[C@H](O)[C@H]2O)[C@@H](O)[C@@H]1O
The experiment in a line: initial rates, DNS reducing sugar assay, Michaelis-Menten fit. It counts as biochemical, Priestia megaterium. An excerpt:
initial rates, DNS reducing sugar assay, Michaelis-Menten fit on B. megaterium levansucrase

Setting [1] is: 50 mM Sörensen buffer pH 6.5, variant 1B1, global activity (hydrolysis and transfer).
Setting [2] is: 50 mM Sörensen buffer pH 6.5, variant 3C5, global activity (hydrolysis and transfer).

B1: B. megaterium levansucrase (Priestia megaterium DSM 319; K373H) (protein)
chain: KGNDSKDFNNSYGISHITRDNMVKIPQQQNSDQFKVPAFDESTIKNIASAKGKNASGNTIDLDVWDSWPLQNADGTVATYHGYQIVFALAGDPKDSNDTSVYLFYKKAGDKSIDSWKNAGRVFKDSDKFVPNDPHLKNQTQEWSGSGTLTKDGKVRLFYTDYSGKQYGKQTLTTAQVNMSQPNDNTLKVDGVEDYKSIFDGDGKIYQTVQQFIDEGGYDTGDNHTLRDPHYIEDNGHKYLVFEANTGTEDGYQGEDSLYNRAYYGGNNPFFQSEKKKLLEGSNKEKASLANGALGIIELNDDYTLKKVMKPLITSNTVTDEIERANIFKKDGKWYLFTDSRGSHMTIDGIGQDDVYMLGYVSNTLTGKYKPLNDTGLVLHMDLDPNDKTFTYSHFAVPQTKGDNVVITSYMTNRGFYEDNHSTFAPSFLVNIDGSKTSVVKDRVLEQGQLTVDED
notes: recombinant, E. coli BL21(DE3), pRSF-derived vector, purified from cleared lysate on CM sepharose
For orientation: Km means the concentration of substrate that gives half-maximal velocity. Usually kcat stands for the number of substrate molecules converted per active site and unit of time at saturation. In general, kcat/Km refers to the turnover number divided by the Michaelis constant. On to B1, for which, under setting [1], the Km was 41.8 ± 6.6 mM, the kcat stood at 198 ± 8.4 s⁻¹ and the kcat/Km came to 4720 M⁻¹ s⁻¹.

B2: B. megaterium levansucrase (Priestia megaterium DSM 319; K373L) (protein)
chain: KGNDSKDFNNSYGISHITRDNMVKIPQQQNSDQFKVPAFDESTIKNIASAKGKNASGNTIDLDVWDSWPLQNADGTVATYHGYQIVFALAGDPKDSNDTSVYLFYKKAGDKSIDSWKNAGRVFKDSDKFVPNDPHLKNQTQEWSGSGTLTKDGKVRLFYTDYSGKQYGKQTLTTAQVNMSQPNDNTLKVDGVEDYKSIFDGDGKIYQTVQQFIDEGGYDTGDNHTLRDPHYIEDNGHKYLVFEANTGTEDGYQGEDSLYNRAYYGGNNPFFQSEKKKLLEGSNKEKASLANGALGIIELNDDYTLKKVMKPLITSNTVTDEIERANIFKKDGKWYLFTDSRGSLMTIDGIGQDDVYMLGYVSNTLTGKYKPLNDTGLVLHMDLDPNDKTFTYSHFAVPQTKGDNVVITSYMTNRGFYEDNHSTFAPSFLVNIDGSKTSVVKDRVLEQGQLTVDED
notes: as for B1
As for B2, under setting [2], the Km is 12.5 ± 1.3 mM, the kcat stood at 122 ± 2.3 s⁻¹ and the kcat/Km stood at 9800 M⁻¹ s⁻¹.
